Here are results for 20 sequences from the DeepSol protein solubility set.

The data set in a line: soluble on expression in E. coli; label from the status in PepcDB or PDB records.
Turning to “MGSDKIHHHHHHEITDGVVRIGVLNDQTGVYAGLAGPGSVWAAKKAVQDFAPEKHGLKVEIVAADHQNKPDVGASIARRWFDVDKVDAIVDVPTSSVVLAVNQVAKEKNKVMIVTGGGTSDLTGKACTPNAIHWAYDTWALANGTGKAVVKSGGKSWFFVTADYAFGHSLERDTEAVVVKNGGKVLGKVRHPFPGNDFSSYLLQAQASKAQVVGLANAGGDTIGAVKQAAEFGVTAGGQKLAGLLVFSSDVQALGLKAAQGLLLSETWYWDMTDENRKFGKEFAAANNGKFPTMAQAGTYSAVIHYLKAVAAMKADGDGAAVVAKMKAMPTDDKLFGKGSIREDGRKIHPLYLFEVKKPSESKYAGDFYKLIATIPATEAFRPMEEGGCPLIGKKAS”, the “soluble on expression in E. coli” value was “not soluble”. The result for “MSLHELKAAAFPQTTEKISPNWESGINVDLAISTRQYHMQQLFYRYGENNSLSVEGFRKLLQNIGIDKIKRIHIHHDHDHHSDHEHHSDHERHSDHEHHSDHEHHSDHNHAASGKNKRKALCPDHDSDSSGKDPRNSQGKGAHRPEHASGRRNVKDSVSASEVTSTVYNTVSEGTHFLETIETPRPGKLFPKDVSSSTPPSVTSKSRVSRLAGRKTNESVSEPRKGFMYSRNTNENPQECFNASKLLTSHGMGIQVPLNATEFNYLCPAIINQIDARSCLIHTSEKEGHHHHHH” reads “not soluble”. To “MKDKYLIIDGYNMIGQSPELGKIAKDNLQEAREQLLDAIANYNAVVADEIVCVFDAYEQSGIEREYIYHGVKTVFTKEKETADSYIERYVYNLYNKHTTHITVVTSDMSEQHAIFGAGAYRVSSREMWRDLRENEITVSKSLDDFTESKPRTRISLSNDVLAEFEKIRRGNHNKDLEHHHHHH” belongs “not soluble”. To “MSLRDEFSLIRSISPANVHQPSLHVGIGDDAAIYEGAPEMEEVLCVDTMVEEIHFRRDTLTPFQIGYKSLAINISDLAAMGATPKFYLVSIAVPPQWSDREIKTLYRGMAECAAPYRMDLIGGDTVSTNAKLVVTVTAVGHVPKGTRLLRQRARPGDVVFLTGTVGQSAAGLELLNKKGLHGPFTEEEELLVLAHQQPQPQVEAGHLFARSGYRIALNDVSDGVASEANELAEASKVKLVLKANTIPLHPAMETFSKEQQLEWALFGGEDFQLIGTAAVDAFASLQQLAIQRGISLTEIGYVEAGSPVVELEEGTARSVLKKSGYNHFAKEGHHHHHH” belongs “soluble”; to “MGSSHHHHHHSSGLVPRGGSHMSAASSIFDFEVLDADHKPYNLVQHKGSPLLIYNVASKCGYTKGGYETATTLYNKYKSQGFTVLAFPCNQFGGQEPGNEEEIKEFVCTKFKAEFPIMAKINVNGENAHPLYEYMKKTKPGILKTKAIKWNFTSFLIDRDGVPVERFSPGASVKDIEKKLIPLLESTQSA”, “soluble”; to “MSLVDFIDDNRGEFGVEPICTVLRSAGLQVALSTYYDAKARVPSARALRDAVLGPALCQLWKDNYCVYGARKLWKTARRDGHDVGRDQVARLMRAAGIEGVRRGKRVRTTKADPAAARHPDLVHRNFAAAAPNQLWATDLTFVPTWAGVAYVCFIIDAHSRMIVGWRVASHMRTSMVLDALEMARWSRGTTLQDLICHSDAGSQFTSIRYGERLAEIGAVPSIGTVGDSFDNALAETVNGYYKAELIYGPARSRPWKTVEDVELATLSWVHWHNTSRLHSYLGDIPPTEFEAAFYDAYRTDQPLIGIQEGHHHHHH”, “not soluble”. On to “MSLKYAWIELHSRQWPVSLTCQVLGVSPSGYHARKARDVDTDRARRRISNDALLVHIKAVHAESKGEYGWPRVWKKLLAQGIRVSKDRVQQLMKLHGIRAKTKRRFKVTTDSNHSLPVAPDLLQRDFSPARPDQVWTMDITYIWTDEGWLFLTVILDLFSRQVVGWSMQPHMRTELVSDALRMAWFRRRPEAGLIVHSDRGSQYCSRDFQDLLKGYGMRSSMSRRGNCWDNAPTESLWGSLKRARILGQRFATRREAMDEVIDWLSFYNHSRLHSTLGYVSPMQFERDWYAAQNQRVAEGHHHHHH”, for which the “soluble on expression in E. coli” value is given as “not soluble”. On to “MGGFGVGKTTLVRSVSEIRPLNTEEVMTQAGVGVDETGGVTSKTTTTVAFDFGRISLNDRMVLYLFGAPGQERFWFLWDRLFSGTLGAVVLVDTRRMDDSWYAIDRLEHHRTPFVVAVNRFDDDTARHSLDEIRLALALPDHVPLIDCDARVRTSGKHVLVTLVDHLYQLALAQESASLEHHHHHH”, for which the “soluble on expression in E. coli” value is given as “not soluble”.

As for “MSEAGSTVPFDFSSYGGEIDDLATRGLADAAGAEGIRTAMARVTGRAEEVQASRLSANEQNLIACGPGCADCCRVNVTVLLPEAIAIAAYLEEIGKGDETNAITMRVADTAARVRWMEDDERIRAGVACPFLDGRGWCAIYPVRPLTCRALSSTDPEQCRRALAAHCSDEEETIVVNIFQKFLMEGTFQSLARAMERAGLDTTGRELCRSVTRCLLDPRLADDFLAGKRIKFPESLEHHHHHH”, the “soluble on expression in E. coli” value is on record as “soluble”. The result for “KEQILSSEQLARKMMLELGDKKQEHLVAIYMDTQNRIIEQRTIFIGTVRRSVAEPREILHYACKNMATSLIIIHNHPSGSPKPSESDLSFTKKIKRSCDHLGIVCLDHIIVGKNKYYSFREEADIL” reads “soluble”; that for “MGHHHHHHHHHHSSGHIDDDDKHMGSMAELKYISGFGNECSSEDPRCPGSLPEGQNNPQVCPYNLYAEQLSGSAFTCPRSTNKRSWLYRILPSVSHKPFESIDEGHVTHNWDEVDPDPNQLRWKPFEIPKASQKKVDFVSGLHTLCGAGDIKSNNGLAIHIFLCNTSMENRCFYNSDGDFLIVPQKGNLLIYTEFGKMLVQPNEICVIQRGMRFSIDVFEETRGYILEVYGVHFELPDLGPIGANGLANPRDFLIPIAWYEDRQVPGGYTVINKYQGKLFAAKQDVSPFNVVAWHGNYTPYKYNLKNFMVINSVAFDHADPSIFTVLTAKSVRPGVAIADFVIFPPRWGVADKTFRPPYYHRNCMSEFMGLIRGHYEAKQGGFLPGGGSLHSTMTPHGPDADCFEKASKVKLAPERIADGTMAFMFESSLSLAVTKWGLKASRCLDENYHKCWEPLKSHFTPNSRNPAEPN”, “soluble”; that for “MALEGLKTSCCRPNEPLTTNSMAIAQEKAQHQQRSSLRNMTRPMIGRSGPKEASMTTRTRRETIVFAHPFRLRGIDRELPAGAYDVITDEELIEGLSFPVFRRVATMITVPCAPPRQSAVEMLTIEPDALRDARQADSSTSRA”, “not soluble”. To “MAGDPMATLTRLFIHPVKSMRGIGLTHALADVSGLAFDRIFMITEPDGTFITARQFPQMVRFTPSPVHDGLHLTAPDGSSAYVRFADFATQDAPTEVWGTHFTARIAPDAINKWLSGFFSREVQLRWVGPQMTRRVKRHNTVPLSFADGYPYLLANEASLRDLQQRCPASVKMEQFRPNLVVSGASAWEEDSWKVIRIGDVVFDVVKPCSRCIFTTVSPEKGQKHPAGEPLKTLQSFRTAQDNGDVDFGQNLIARNSGVIRVGDEVEILATAPAKIYGAAAADDTANITQQPDANVDIDWQGQAFRGNNQQVLLEQLENQGIRIPYSCRAGICGSCRVQLLEGEVTPLKKSAMGDDGTILCCSCVPKTALKLTRLEHHHHHH” belongs “not soluble”; to “MSKIASEVVATTLNDWYIAIKKQKVDESIKYYSEIKKLFDEMEEDQEVLAYYSLLEERHKMLLHSSRGEPLQKHTYFTEDNQNFITKTNDKLEYNFYLFEAMYEAYNKNYDRAINLYGLAEKKLAEIPDEIEAAEFYSKVSYLYTLVKQSIVAQHYIKNAISIYKRHPDYKCKLATSTMIAAANYADMKRFEEAEQYYLEAIDIAKETKDEFLKAQLFHNLSIVYSDWNKPDKCIESLEKAIGNESWLHSIYYINSLFMMIKELFKIDEKMKAINFYNKAQERLILMENKVYEAKISILYNLYCGELKNNFNNCISNIEFLKQQNELESVDELSYIAAKRFESIGAFEEATSFFNAKIWAEQKMNQVEGIL”, “not soluble”. To “MNVGIKGFGAYAPEKIIDNAYFEQFLDTSDEWISKMTGIKERHWADDDQDTSDLAYEASVKAIADAGIQPEDIDMIIVATATGDMPFPTVANMLQERLGTGKVASMDQLAACSGFMYSMITAKQYVQSGDYHNILVVGADKLSKITDLTDRSTAVLFGDGAGAVIIGEVSEGRGIISYEMGSDGTGGKHLYLDKDTGKLKMNGREVFKFAVRIMGDASTRVVEKANLTSDDIDLFIPHQANIRIMESARERLGISKDKMSVSVNKYGNTSAASIPLSIDQELKNGKLKDDDTIVLVGFGGGLTWGAMTIKWGK” belongs “soluble”; to “MDIAKWVEHARTCYSTQLDTKIKVIGVIGKDYPDHGKGDNINCYLRENVFPVAATEDETCTIRGHFSEDDQILFLVMNGVDDVANIRKCLKSNPKSNYFDAMAESECQQIRMLHFLFISCHFIIIFEQTSRIDLELMRFLKKVNSARIQLRKKINQRLVASDLRDVSFNNRILSSAESEGRMVVPRLLIAFQRNNIRPDVNPGKKRELYEKLEKNLDNQFSDILKLYDLIDCGASSLCQLNETIPVVHLLNPKIVKRDIIGEMFEILMADAENTKISGNAGTLPSNNSFVKFLEDNFRSEKNEISLENVIELMNCLQCVLDGDLEEKHEKTAIQTFIKRIQNDHMEEARRLYTNAQRPGERRGADRFKDSEKPVKIRSKEEHLMRVEKPKKFCIFISFQNVLQFNEATHYIDSVVGVNSREALSQLQAQCNEMWQSDMRACESVSMMGRSCVRKIHPTFGDQTAPEHRWTAHDASNTMISTCVCGRKQLIRPEPFSVKEANSDFYDHPDFKCCRRLWRYQFQLYQEDSEEKDDIMWADRESNSLRAAKKMAQREDELAEEDTDLDIPESLLDPDSTSPSDEDDVRVRTMSSSESSSQESDAYLRPTSRRDESMASKTERELTIDHVKRMQKLELAGKSEDFLITVPNSMTTGKLPIFPSWHLTSLGDSSIYSHGAGLKNQPNFKIGGDYLSPVVVLLDVNFDVWNRDLNKIRSEDFSRKCGKDNKDDSARVKLFVGFEYECSRGHRFFVDYNGEPLIYSKGSNVIRESAHRSSLGNVLQADLPIRRPCTCRKLPLQSAQLQKVHVVTPKAPVHITIDPKVLIPTHEGVYGTGQEPLELHHSKYYILHLPTVYSGPSGAWMPGEFNPEKQGVWMGGALKVAYKPVMSFKW”, “not soluble”; to “HHHHHHGHMRTNKDRLVRISVVGEIAPAKMRSPYSVTTEGTVRVIPVLGGITYNVKVGDSAYGWAGDHVEPGVSVMARRKEEEIPLMTLSCIGNEVIVMSGDAKGSRGFVTGKHGGVNHVLVHFEEEVLGKLMVGDKILIKAWGQGLKLLDHPDVKVMNIDPDLFEKLGIQEKNGKIHVPVVAKIPAHMMGSGIGASSSASTDYDIMASNPEDLGVADLKLGDIVAIQDHDNSYGVGKYRKGAVSIGVVVHSACVSAGHGPGVVVIMTGDESKILPEEVERANISDYLVR”, “soluble”. On to “MSNQSKLNSAAYDQLNKDADRILHLIKVQMDNLTLPSCPLYEEVLDTQMFGLQKEVDFAVQLGLVDKEDGKQLMLRLEKELSKLHEAFTNV”, for which the “soluble on expression in E. coli” value was “not soluble”. To “MSTLYHTCDKIEQRIIWIDCEMTGLDVEKQTLCEIALIVTDSELNTIATGPDIVIHQPKEVLDNMEEWPRNTFHENGLMEKIIASKYSMADAENEVIDFLKLHALPGKSPIAGNSIYMDRLFIKKYMPKLDKFAHYRCIDVSTIKGLVQRWYPDYKHPKKQCTHRAFDDIMESIAELKNYRESIFVKSTASSF” belongs “not soluble”. For the sequence “MAHHHHHHMRTHKTHAYIQAHCLCDFYLTYCAGWVGAIKADGSGQPREPSNGVFGCVRDYIFHQMLDAVHGSSKVFFCDAHAAAVLNCSLRLHDLMERGVTLLEDLMAPRQPIMSSFTPYFFAVEDACVSCVVEDWMAKVPYRDVHIFALGCAPHRSPQQLPRSRIAPRVMRFKEMMLDFTATEALVFHPNMQNGLPQLLSPLSPPT”, the “soluble on expression in E. coli” value was “not soluble”.
